Measured values: US20070202134A1, “Muc1 Antagonist Enhancement of Death Receptor Ligand-Induced Apoptosis” (priority 2004, published 2007)

Test system: HCT116/vector cells
Assay: Apoptosis by analysis of sub-G1 DNA, HCT116/vector cells
Assay type: cell-based, Human
Conditions: 100 ng/ml TRAIL for 14 hr, without adding CHX
Procedure: Methods. Apoptotic cells were quantified by analysis of sub-G1 DNA and TUNEL staining. To assess sub-G1 DNA content, cells were harvested, washed with PBS, fixed with 80% ethanol, and incubated in PBS containing 20 ng/ml RNase (Roche) for 60 min at 37° C. Cells were then stained with […] propidium iodide (Sigma) for 30 min at room temperature in the dark. DNA content was analyzed by flow cytometry (EPICS XL-MCL, Coulter Corp.). Apoptotic cells with DNA fragmentation were detected by staining with the In Situ cell death detection kit (TUNEL; Roche Applied Science) and visualized by confocal microscopy (ZEISS LSM510). After staining, cells were analyzed by flow cytometry. Other experimental procedures and methods were as described in Example 1.

B1: TRAIL: TNF-related apoptosis-inducing ligand, rhTRAIL (Calbiochem-Novabiochem) (protein, UniProt P50591 1-281, looked up)
Tumor necrosis factor ligand …: MAMMEVQGGPSLGQTCVLIVIFTVLLQSLCVAVTYVYFTNELKQMQDKYSKSGIACFLKEDDSYWDPNDEESMNSPCWQVKWQLRQLVRKMILRTSEETISTVQEKQQNISPLVRERGPQRVAAHITGTRGRSNTLSSPNSKNEKALGRKINSWESSRSGHSFLSNLHLRNGELVIHEKGFYYIYSQTYFRFQEEIKENTKNDKQMVQYIYKYTSYPDPILLMKSARNSCWSKDAEYGLYSIYQGGIFELKENDRIFVSVTNEHLIDMDHEASFFGAFLVG
- induction of apoptosis: effective in inducing apoptosis
